Test results taken from publication PMC4820614.

Molecular target: T1, full-length rat TRPV2 (rat), Q9WUD2
T1 chain: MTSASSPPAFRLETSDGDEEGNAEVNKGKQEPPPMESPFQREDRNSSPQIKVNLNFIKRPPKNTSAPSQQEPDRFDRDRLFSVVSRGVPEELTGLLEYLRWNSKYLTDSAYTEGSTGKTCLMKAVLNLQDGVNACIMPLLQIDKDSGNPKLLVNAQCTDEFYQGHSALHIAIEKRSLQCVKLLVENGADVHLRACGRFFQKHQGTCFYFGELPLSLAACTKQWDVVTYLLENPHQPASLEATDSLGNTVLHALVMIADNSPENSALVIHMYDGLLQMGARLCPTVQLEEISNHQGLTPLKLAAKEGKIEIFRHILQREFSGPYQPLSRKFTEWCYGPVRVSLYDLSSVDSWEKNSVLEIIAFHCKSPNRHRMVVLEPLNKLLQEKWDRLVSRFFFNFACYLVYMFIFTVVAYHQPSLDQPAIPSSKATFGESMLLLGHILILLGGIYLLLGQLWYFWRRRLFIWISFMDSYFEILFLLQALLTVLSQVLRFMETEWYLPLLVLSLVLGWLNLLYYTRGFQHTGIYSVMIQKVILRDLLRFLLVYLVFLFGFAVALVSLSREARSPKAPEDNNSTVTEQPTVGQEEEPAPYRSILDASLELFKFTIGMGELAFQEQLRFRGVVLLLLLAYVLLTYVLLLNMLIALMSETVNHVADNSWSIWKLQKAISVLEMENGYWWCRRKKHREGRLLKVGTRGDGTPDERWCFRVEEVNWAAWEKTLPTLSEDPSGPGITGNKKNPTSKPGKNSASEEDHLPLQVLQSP
Assay: cryo-EM structure; single particle cryo-EM of purified rat TRPV2 without ligand, 2.5 mg/ml, in decyl MNG, 150 mM NaCl, 20 mM HEPES pH 8.0, 1.0 mM DTT; no added lipids
Details: remark: other sources report otherwise

B1: full-length rat TRPV2, Q9WUD2 1-761 (natural protein)
chain: T1 chain
B1 showed a stoichiometry N of 4.
